Laboratory results reported in US20240101640A1 (CSL BEHRING, published 2024).

B2: heme-hemopexin complex (human plasma derived hemopexin saturated with hemin) (ligand)
chain: TPLPPTSAHGNVAEGETKPDPDVTERCSDGWSFDATTLDDNGTMLFFKGEFVWKSHKWDRELISERWKNFPSPVDAAFRQGHNSVFLIKGDKVWVYPPEKKEKGYPKLLQDEFPGIPSPLDAAVECHRGECQAEGVLFFQGDREWFWDLATGTMKERSWPAVGNCSSALRWLGRYYCFQGNQFLRFDPVRGEVPPRYPRDVRDYFMPCPGRGHGHRNGTGHGNSTHHGPEYMRCSPHLVLSALTSDNHGATYAFSGTHYWRLDTSRDGWHSWPIAHQWPQGPSAVDAAFSWEEKLYLVQGTQVYVFLTKGGYTLVSGYPKRLEKEVGTPHGIILDSVDAAFICPGSSRLHIMAGRRLWWLDLKSGAQATWTELPWPHEKVDGALCMEKSLGPNSCSANGPGLYLIHGPNLYCYSDVEKLNAAKALPQPQNVTSLLGCTH
modifications: heme (hemin) bound non-covalently in a 1:1 ratio
notes: also called heme-hpx complex; heme-hx complex

Tests used:
[1] = biological target: B2; assay: BLI (Octet), LRP1.2 captured on anti-Penta-His biosensor, heme-hpx complex as analyte at 0.312-2.5 µM [LRP1.2]
Description: (§1) Individual LRP1 domains were immobilized on the biosensor surface. After baseline recording four concentration of heme-hpx complexes were tested (2.5, 1.25, 0.625 and 0.312 μM). For LRP1.3 the reference subtracted and processed kinetic dataset was globally fitted using a 1:1 binding model. Heme-hpx is shown in red curves, fitted curve as solid black line. LRP1.1, LRP1.2, LRP1.4 and LRP1.5 were not fitted.
(§2) As described above, anti-penta His antibody pre-coated biosensors (Cat N°: 18-5120, ForteBio, TechNote 43: Anti-Penta-HIS (HIS1K) biosensors for label-free analysis of HIS-tagged proteins, 2019) were used. The different LRP1 domains were immobilized at a concentration of 15 μg/mL in 10× kinetic buffer (PBS, 0.1% BSA, 0.02% Tween20). Heme-Hpx complex was diluted in 10× kinetic buffer (PBS, 0.1% BSA, 0.02% Tween20). The association and dissociation kinetics of heme-hemopexin complex, were performed at concentrations of 2.5, 1.25, 0.625 and 0.3125 μM. A reference control was included in every experiment (sensor loaded with ligand without analyte). Data was acquired on an OctetRED96 (FortéBio) at 30° C. with the following settings:
(§3) To investigate and determine, which of the LRP1 domains bind the heme-hpx complex, each of the domains were tethered on biosensors (HIS1K; anti-penta-His) via the expressed His-tag.

[2] = biological target: T1, HuLRP1(1-24)-FLAG-HuLRP1(2481-2942)-8His (huLRP1 soluble minireceptor, ligand binding domain III) (human, UniProt Q07954 2481-2942); assay: SPR, LRP1.3 tethered on NTA chip, heme-hpx complex batch TO341022BM (“New”), 1:1 steady state fit, N = 1
T1 construct: Made in ExpiCHO-S cells; also called LRP1.3; LRP1 domain III
T1 sequence (Q07954 other isoform, or with tags, fused parts or gaps): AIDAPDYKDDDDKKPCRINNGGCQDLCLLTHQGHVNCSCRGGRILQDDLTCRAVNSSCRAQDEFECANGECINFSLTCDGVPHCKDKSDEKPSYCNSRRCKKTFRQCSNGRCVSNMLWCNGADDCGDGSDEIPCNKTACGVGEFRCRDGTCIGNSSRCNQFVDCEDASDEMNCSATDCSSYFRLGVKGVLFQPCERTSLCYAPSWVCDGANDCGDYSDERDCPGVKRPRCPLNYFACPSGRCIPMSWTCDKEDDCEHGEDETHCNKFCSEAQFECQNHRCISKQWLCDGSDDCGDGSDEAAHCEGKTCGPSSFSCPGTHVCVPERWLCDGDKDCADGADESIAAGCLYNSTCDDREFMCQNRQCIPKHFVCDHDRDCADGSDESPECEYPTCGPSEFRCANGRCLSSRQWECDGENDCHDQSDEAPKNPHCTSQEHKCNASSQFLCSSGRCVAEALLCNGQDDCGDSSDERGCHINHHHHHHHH

[3] = biological target: T1, HuLRP1(1-24)-FLAG-HuLRP1(2481-2942)-8His …; assay: SPR, LRP1.3 tethered on NTA chip, heme-hpx complex batch TO342022B (“Aged”), 1:1 steady state fit, N = 1
Description: (§4) Heme-hpx complex was injected in duplicate at concentrations ranging from 0.62 to 20 μM in 2-fold dilution series over 30 seconds. The dissociation was monitored for 60 seconds. No regeneration step was required between cycles since the complex dissociated fully. Sensogram data from active surface (flow cell 4) were double referenced by subtraction of data from reference surface (flow cells 3) and blank injections. Sensogram data were fit to a 1:1 steady state model.

[4] = biological target: T1, HuLRP1(1-24)-FLAG-HuLRP1(2481-2942)-8His …; assay: SPR, LRP1.3 tethered on NTA chip, heme-hpx complex batch T0342022C as printed, 1:1 steady state fit, N = 1
[5] = biological target: T1, HuLRP1(1-24)-FLAG-HuLRP1(2481-2942)-8His …; assay: SPR, LRP1.3 tethered on NTA chip (capture cross link), heme-hpx (batch TO411122), 1:1 steady state fit, mean of N = 3
[6] = biological target: T1, HuLRP1(1-24)-FLAG-HuLRP1(2481-2942)-8His …; assay: SPR, LRP1.3 tethered on NTA chip (capture cross link), heme-hpx (batch TO411122) 0.62-20 µM, 1:1 steady state fit, run 1
Description: as §4

[7] = biological target: T1, HuLRP1(1-24)-FLAG-HuLRP1(2481-2942)-8His …; assay: SPR, LRP1.3 tethered on NTA chip (capture cross link), heme-hpx (batch TO411122) 0.62-20 µM, 1:1 steady state fit, run 2
Description: as §4
(§5) In a next step and as mentioned above an alternative assay setup was developed as illustrated in FIG. 7A.

[8] = biological target: T1, HuLRP1(1-24)-FLAG-HuLRP1(2481-2942)-8His …; assay: SPR, LRP1.3 tethered on NTA chip (capture cross link), heme-hpx (batch TO411122) 0.62-20 µM, 1:1 steady state fit, run 3
Description: as §4, §5

[9] = biological target: T1, HuLRP1(1-24)-FLAG-HuLRP1(2481-2942)-8His …; assay: BLI (OctetRED96, 30 °C), LRP1.3 captured on anti-penta-His biosensor, heme-hpx (batch TO294001) 2.5-0.312 µM, global 1:1 fit
Description: as §1
as §2, with “settings: […]” for “settings:”

[10] = biological target: T2, HuLRP1(1-24)-FLAG-HuLRP1(3293-3783)-8His (huLRP1 soluble minireceptor, ligand binding domain IV) (human, UniProt Q07954 3293-3783); assay: BLI (Octet), LRP1.4 captured on anti-Penta-His biosensor, heme-hpx complex as analyte at 0.312-2.5 µM [LRP1.4]
T2 construct: also called LRP1.4; LPR1 domain IV
T2 sequence (Q07954 other isoform, or with tags, fused parts or gaps): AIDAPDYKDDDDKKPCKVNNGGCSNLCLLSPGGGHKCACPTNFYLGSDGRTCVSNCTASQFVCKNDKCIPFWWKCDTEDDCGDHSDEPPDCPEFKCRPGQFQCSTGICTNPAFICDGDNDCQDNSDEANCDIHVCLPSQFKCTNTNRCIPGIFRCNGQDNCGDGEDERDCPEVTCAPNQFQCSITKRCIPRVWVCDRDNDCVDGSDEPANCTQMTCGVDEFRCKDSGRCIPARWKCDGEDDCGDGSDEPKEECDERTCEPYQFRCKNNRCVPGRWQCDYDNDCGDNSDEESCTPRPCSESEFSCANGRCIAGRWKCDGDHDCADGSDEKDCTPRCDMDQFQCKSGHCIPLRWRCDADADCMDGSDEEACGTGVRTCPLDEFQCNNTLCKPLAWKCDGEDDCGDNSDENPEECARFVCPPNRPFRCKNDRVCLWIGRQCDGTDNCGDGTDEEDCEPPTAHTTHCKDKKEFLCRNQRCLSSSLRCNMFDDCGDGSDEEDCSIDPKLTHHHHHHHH
Description: as §1, §2, §3

[11] = biological target: T3, HuLRP1 (3332-3779)-8His (second ligand binding domain IV construct) (human, UniProt Q07954 3332-3779); assay: BLI (Octet), LRP1.5 captured on anti-Penta-His biosensor, heme-hpx complex as analyte at 0.312-2.5 µM [LRP1.5]
T3 construct: Any N-terminal residues left from a signal peptide or tag are not described; also called LRP1.5; LPR1 domain IV (LRP1.5)
T3 sequence (Q07954 other isoform, or with tags, fused parts or gaps): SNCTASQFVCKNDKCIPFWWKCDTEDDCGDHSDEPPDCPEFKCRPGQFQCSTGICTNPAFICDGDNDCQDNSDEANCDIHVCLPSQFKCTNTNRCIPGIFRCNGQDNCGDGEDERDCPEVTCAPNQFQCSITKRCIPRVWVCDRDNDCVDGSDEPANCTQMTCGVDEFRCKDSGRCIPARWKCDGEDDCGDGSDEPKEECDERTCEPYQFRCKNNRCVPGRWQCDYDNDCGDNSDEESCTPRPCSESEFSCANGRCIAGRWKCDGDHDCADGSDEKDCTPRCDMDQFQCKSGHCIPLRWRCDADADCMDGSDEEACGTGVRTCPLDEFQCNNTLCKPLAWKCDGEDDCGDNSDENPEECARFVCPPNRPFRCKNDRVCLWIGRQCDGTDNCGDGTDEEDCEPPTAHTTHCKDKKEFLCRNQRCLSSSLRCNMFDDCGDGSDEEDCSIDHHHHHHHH
Description: as §1, §2, §3

[12] = biological target: T1, HuLRP1(1-24)-FLAG-HuLRP1(2481-2942)-8His …; assay: SPR (Biacore), LRP1.3 tethered on NTA chip, heme-hpx complex batch TO411122 (as titled on the sheet) as analyte at 0.62-20 µM, steady state 1:1 fit
Description: as §4

[13] = biological target: T1, HuLRP1(1-24)-FLAG-HuLRP1(2481-2942)-8His …; assay: SPR (Biacore), LRP1.3 tethered on NTA chip, heme-hpx complex ("new", batch TO341022BM by the legend) as analyte at 0.62-20 µM, steady state 1:1 fit
Description: as §4

[14] = biological target: T1, HuLRP1(1-24)-FLAG-HuLRP1(2481-2942)-8His …; assay: SPR (Biacore), LRP1.3 tethered on NTA chip, heme-hpx complex ("aged", batch TO342022B by the legend) as analyte at 0.62-20 µM, steady state 1:1 fit
Description: as §4

[15] = biological target: T1, HuLRP1(1-24)-FLAG-HuLRP1(2481-2942)-8His …; assay: SPR (Biacore, 37 °C), heme-hpx (batch TO411122) captured by anti-hemopexin polyclonal antibody on CM5, LRP1.3 0.312-20 µM as analyte, kinetic fit (not optimal)
[16] = biological target: B2; assay: BLI (Octet), LRP1.1 captured on anti-Penta-His biosensor, heme-hpx complex as analyte at 0.312-2.5 µM [LRP1.1]
Description: as §1, §2, §3

B1: HuLRP1(1-24)-FLAG-HuLRP1(806-1183)-8His (huLRP1 soluble minireceptor, ligand binding domain II) (receptor)
chain: AIDAPDYKDDDDKKKCRVNNGGCSSLCLATPGSRQCACAEDQVLDADGVTCLANPSYVPPPQCQPGEFACANSRCIQERWKCDGDNDCLDNSDEAPALCHQHTCPSDRFKCENNRCIPNRWLCDGDNDCGNSEDESNATCSARTCPPNQFSCASGRCIPISWTCDLDDDCGDRSDESASCAYPTCFPLTQFTCNNGRCININWRCDNDNDCGDNSDEAGCSHSCSSTQFKCNSGRCIPEHWTCDGDNDCGDYSDETHANCTNQATRPPGGCHTDEFQCRLDGLCIPLRWRCDGDTDCMDSSDEKSCEGVTHVCDPSVKFGCKDSARCISKAWVCDGDNDCEDNSDEENCESLACRPPSHPCANNTSVCLPPDKLCDGNDDCGDGSDEGELCDHHHHHHHH
notes: also called LRP1.2; LPR1 domain II
Q: Does B1 bind [1]?
A: Result: no binding (tested: 2.5 µM heme-hpx complex)

Q: Which Kd [2] does the source give for B2 here?
A: Its Kd is 1.41 µM.

Q: What about the Kd [3] of the same binder?
A: Its Kd is 1.35 µM.

Q: What about the Kd [4] of the same binder?
A: Its Kd is 1.34 µM.

Q: And the Kd [5]?
A: Its Kd is 2.62 µM.

Q: What about the Kd [6] of the same binder?
A: The Kd was 2.62 µM.

Q: And the Kd [7]?
A: Its Kd is 2.61 µM.

Q: And the Kd [8]?
A: The Kd was 2.63 µM.

Q: What about the Kd [9] of the same binder?
A: Its Kd is 1.46 µM.

Q: And the koff [9]?
A: The koff was 0.0555 s⁻¹.

Q: And the kon [9]?
A: The kon was 37900 M⁻¹ s⁻¹.

Q: Does B2 bind [10]?
A: Result: no binding (tested: 2.5 µM heme-hpx complex)

Q: Does B2 bind [11]?
A: Result: no binding (tested: 2.5 µM heme-hpx complex)

Q: What about the Kd [12] of the same binder?
A: Its Kd is 1.4 µM.

Q: And the Kd [13]?
A: The Kd was 1.4 µM.

Q: What about the Kd [14] of the same binder?
A: The Kd was 1.4 µM.

Q: What about the Kd [15] of the same binder?
A: Its Kd is about 2 µM.

B3: HuLRP1(1-24)-FLAG-HuLRP1(25-113)-8His (huLRP1 soluble minireceptor, ligand binding domain I) (receptor)
chain: AIDAPDYKDDDDKKKTCSPKQFACRDQITCISKGWRCDGERDCPDGSDEAPEICPQSKAQRCQPNEHNCLGTELCVPMSRLCNGVQDCMDGSDEGPHCRELQGHHHHHHHH
notes: also called LPR1 domain I; LRP1 domain 1
Q: Does B3 bind [16]?
A: Result: no binding (tested: 2.5 µM heme-hpx complex)
